# The nanobody polyreactivity screen of Harvey et al. (2022)
# Experiment: yeast display, Sf9 membrane polyspecificity reagent, FACS + sequencing; frameworks hold sequencing errors
# How it was run: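 Galactose induction of a Saccharomyces cerevisiae BJ5465 synthetic nanobody display library ran 36–48 hours. The cells were then stained for 1 hour at 4 °C with 10% biotinylated, detergent-solubilized Sf9 membrane reagent, pulled down on streptavidin microbeads and FACS-sorted into low and high (top ~1%) gates on expression and reagent-binding fluorescence. Labels for polyreactivity follow the gate of origin.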
row,Sequence,polyreactivity (PSR sort gate)
1,QVQLVESGRGLVQAGGSLRLSCAASGRIFGRNAMGWYRQAPGKESELVASITSGGGTNYADSVKGRFTISRDNAKNTVYLQMNSLKPDDTAVYDCAKQFYRPGQQSRYDYWGQGMQVTVSS,low polyreactivity
2,QVQLVESGRGLVQAGGSLRLSCAASGRIFGVYGRGWYRQAPGKERELVAAISWSGATTYYADSVKGRFTISRDNAKNTVYLQMHSLKPEDTAVYYCAADFGWFYDGVAVWFIRILGDYWGQGTQVTVSS,low polyreactivity
3,QVQLVESGRGLVQAGGSLRLSCAASGRIFYNYAMGGYRQAPGKERELVAAISSSGGSTYFADSVKGRFTISRDNAKNTVYLQMNSLKPEDTAVYYCAVRKQYSGRYYRAYDYWGQGTQVTVSW,high polyreactivity
4,QVQLVESGRGLVQAGGSLRLSCAASGRIFYYYAMGWYRKAPRKERELVAANTETGGNTYYADSVKGRFTISRDNAKNTVYLQMNSLKPEDTAVYYCARKGRRTHHYGLYSSSVYYWGQGTQVTVSS,low polyreactivity
5,QVQLVESGRGLVQAGGSLRLSCAASGRIIRWNAMGWYRQAPGKERELVAGISGSGGSTYYADSVKGRFTISRDNAKNTVYLQMNSLKPEDTAVYYCAADHYRSRYDYWGQGTQVTVSS,low polyreactivity
6,QVQLVESGRGLVQAGGSLRLSCAASGRTFARYAIGWYRPAPGKERELVATIRRVGSTNYADSVNGRFTISRDNAKNTVYLQMNSLKPEDTAVYYCAARSLRYGRGMYYWGQGTQVTVSS,high polyreactivity
7,QVQLVESGRGLVQAGGSLRLSCAASGRTFAYYAMGWYRQAPGKERELVAGITTGGITNYADSVKGRFTISRDNAKNTVYLEMNRLKPEDTAVYYCAKANLFTYWYPGGNFDSAQSDYWGQGTQVTVSS,low polyreactivity
8,QVQLVESGRGLVQAGGSLRLSCAASGRTFPYYAMGWYRQAPGKERELVAAISSSGGSTYYADSVKGRFTISRDNAKNTVYLQMNSLKPEDTAVYYCNRYSRLYLTDDDYWGQGTLVTVSS,high polyreactivity
9,QVQLVESGRGLVQAGGSLRLSCAASGSIFIVYAMGWYRQAPGKERELVAAISWSGGSTYYADSVKGRFTISRDNAKNTVYLQMNSLKPEDSAVYFCAAKYTLPFRDVKYYSWGQGTQVTVSS,high polyreactivity
10,QVQLVESGRGLVQAGGSLRLSCAASGSIFIYYAMGWYRQAPGKERELVAAISFSGARTYYADSVKGRFTISRDNAKNTVYLQMNSLKPEDTAVYYCNGARYSRRWPSEYWGQGTQVTVSS,low polyreactivity
11,QVQLVESGRGLVQAGGSLRLSCAASGSIFTSYVMGWYRQAPGKERELVAAISQTGSSTYYADSVKGRFTISRDNAKNTVYLQMNSLKPEDTAVYYFAARRSRGSVRNYDYWGQGTKVTVSS,high polyreactivity
12,QVQLVESGRGLVQAGGSLRLSCAASGSIFYGNTMGWYRQAPGTERELVASITRPGDRTYYADSVKGRFTLSRDNAKNTVDLQMNSLKAEDTAVYYCNAGLVLPPPGACIVYFDQMDYWGQGTQVTVSS,low polyreactivity
13,QVQLVESGRGLVQAGGSLRLSCAASGSMFGKHVMGWYRQAPGKERELVAAISRSGGRTYYADSVKGRFTISRDNANNTVYLQMNTLKPEDTAVYYCAADGQPIGQQTYDYWGQGTQVTVSS,high polyreactivity
14,QVQLVESGRGLVQAGGSLRLSCAASGSNFSVYAMGWYRKAPGKERELVAGITRGGSTYADSVKGRFTISRDNAKNTVYLQMNCLKPEDTAVYYFNAVWSNFRLGYDYWGQGTQVTVSS,high polyreactivity
15,QVQLVESGRGLVQAGGSLRLSCAASGSTFDGYAMGWYRQAPGKERELVAAINWGGGSTRYADSVKGRFTISRDNAKNTVYLQMNSLKPEDTAVYYCAKYTSSRFDAFNYWGQGTQVTVSS,high polyreactivity
16,QVQLVESGRGLVQAGGSLRLSCAASGSTFHGYPMGWYRQEPGKERELVAAITSGDSTNYADSVKGRYTISRDNAKNTVYLQMNSLKPEDTAVYYCAALQADRDRYPEFDLMDYWGQGTQVTVSS,low polyreactivity

row,Sequence,polyreactivity (PSR sort gate)
1,QVQLVESGRGLVQAGGSLRLSCAASGSTFLYYAMGWSRQAPGKEMELVAVISWSGVSTYYADSVKGRFTISRDNAKTTVYLQMNSLKPEDTAVYYCAAVPVHTGSLYWGFTTGYDYWGQGTQVTVSS,low polyreactivity
2,QVQLVESGRGLVQAGGSLRLSCAASGSTFQYYAMGWYRPATGKERELDAAINSRGTSTFYADSVKGRFTISRDNAKNTVYLQMNSLKPEDTAVDYCNARGPRYGNRYRNDYWGQGTQGTVSS,high polyreactivity
3,QVQLVESGRGLVQAGGSLRLSCAASGSTFRYNAMGWYRQAPGKERELVAAINRGGGTDYADSVKGRFTISRDNAKNTDYLQMNSLKPEDTAVYYCAKQFVSYNRWLAYGYWGQGTQVTVSS,low polyreactivity
4,QVQLVESGRGLVQAGGSLRLSCAASGSTFRYYAMGWYRQAPGKERELVASITRGASTNYADSVKGRFTISRDNAKNTVYLQMNSLKPEDTAVYYCAADNYCHTFGGTDLRDDYWGQGTQVTVSS,low polyreactivity
5,QVQLVESGRGLVQAGGSLRLSCADSGYIFWYYAMGWYRQAPGKERELVATITVSAGTTYFADSVKGRFTISRDNAKNTVYLQMNSLKPEDTAVYYCNKRSALSFVYDFDYWGQGTQVTVSS,low polyreactivity
6,QVQLVESGRGLVQAGGSLRLSCASSGSTFRWNAMGWYRQAPGKERELVAAISQSGSSTYYADSVKGRFTISRDNAKNTVYLQMNSLKPEDTAVYYCAARTGRKYYYWGQGTQVTVSS,low polyreactivity
7,QVQLVESGRGLVQAGGSLRLSCEDSGNIFPYYAMGWYRQAPGKERELVAAISGSGDRTYYADSVNGRFTISRDNAKNTVYLQMNSLKPEDTAVYYCAAYRRYYGWYDYWGQGTQVTVSS,high polyreactivity
8,QVQLVESGRGLVQAGGSLRLSCGASGRTFGYYGMVGYRQATGKERELVASISRRGVSTYYADSVKGRFTISRDNAKNTVYLQMNSLKPEDTAVYYCAKDYWGYKYDYWGKGTQVTVSS,high polyreactivity
9,QVQLVESGRGLVQAGVSLRLSCADSGSTFDYNAMGCYRQATGKERELVPVNRSGGTTYYADSVKGRFTISRDNANNTVYLQMNSLKPEDTAVYYCAAAFQRRAGSYGGSRRYGYWGQVTQVTVSS,high polyreactivity
10,QVQLVESGRGLVQARGSLRLSCAASGFIFYRYAMGWYRQAPGKEREFVAANTSTGTTYYADSVKGRFTISRDNAKNTVYLQMNSLKPEDTAVYYCNAGFRYKYQSSRVDYWGQGTQVTVSS,high polyreactivity
11,QVQLVESGRGLVQEGGSLRLSCAPSGLIFRYYAMGWYRQAPGKEREFVAAISGRGASTYYADSVKGRFTISRDNAKITGYLQMNSLTPEDTAVYYCATYFPSAVVAFHMDYWGQGTQVTVSS,high polyreactivity
12,QVQLVESGRRLVQAGGSLRLTCAASGRTFVTNAMGWYRQAPGKERELVAAISSKGGSTYYADSVKGRFTISRDNAKNTVYLQMNSLKPEDTAVYDCNAEGQPLYVSWHDHRYIYGFDYWGQGTQVTVSS,low polyreactivity
13,QVQLVESGSGLVQAGGSLRLSCAASGSIFVNYGMGRYRQAPGKERELVAAINRNGGRTYYADSVKGRFTISRDNAKNTVYLQMNSLKPEDTAVYYCNALYPGGLSLSRLDYWGQGTQVTVSS,high polyreactivity
14,QVQLVESGVCIVQAGGSLRLSCAASGFTFRENAMGWYRQAPGKERELVAAISKRGGTTYYADSVKGRFTSSRDYAKNTVILQTNSLKPEDTAVYYCATQYLIQNKYYSWGQGTQVTVSS,high polyreactivity
15,QVQLVESGVCLVQAGGSLRLSCAASGSTITYNAMGWYRQAPGKERELVASISSGTTTYYADSVKGRFTISRDNAKNTVYLQMNSLHTEDTAVYYCAVDSCSRVQGWLAHNYDYWGQGTQVTVSS,low polyreactivity
